Measurements: FireProtDB (doi:10.1021/bi00454a022)
Values joined by “and” are separate entries in the source; they are usually repeats but may differ in a detail not shown here. Equal entries are not always repeated.

Conditions: Bos taurus; pH 7; 25 °C; GdnHCl; CD; Sodium phosphate 20 mM; reversible: yes; whole UniProt chain shown

B1: Gamma-crystallin B wild type, P02526 (protein)
chain: MGKITFYEDRGFQGHCYECSSDCPNLQPYFSRCNSIRVDSGCWMLYERPNYQGHQYFLRRGDYPDYQQWMGFNDSIRSCRLIPQHTGTFRMRIYERDDFRGQMSEITDDCPSLQDRFHLTEVHSLNVLEGSWVLYEMPSYRGRQYLLRPGEYRRYLDWGAMNAKVGSLRRVMDFY
  denaturant m value: 1.3 kcal/mol/M
  unfolding free energy: 5.2 kcal/mol and 6.5 kcal/mol
